The values that follow come from patent US12655198B2.

This experiment addresses alcohol dehydrogenase (ADH).

B1: CryS96 (αB-crystallin peptide fused with ELP S96) (protein)
chain: GDRFSVNLDVKHFSPEELKVKGVPGSGVPGSGVPGSGVPGSGVPGSGVPGSGVPGSGVPGSGVPGSGVPGSGVPGSGVPGSGVPGSGVPGSGVPGSGVPGSGVPGSGVPGSGVPGSGVPGSGVPGSGVPGSGVPGSGVPGSGVPGSGVPGSGVPGSGVPGSGVPGSGVPGSGVPGSGVPGSGVPGSGVPGSGVPGSGVPGSGVPGSGVPGSGVPGSGVPGSGVPGSGVPGSGVPGSGVPGSGVPGSGVPGSGVPGSGVPGSGVPGSGVPGSGVPGSGVPGSGVPGSGVPGSGVPGSGVPGSGVPGSGVPGSGVPGSGVPGSGVPGSGVPGSGVPGSGVPGSGVPGSGVPGSGVPGSGVPGSGVPGSGVPGSGVPGSGVPGSGVPGSGVPGSGVPGSGVPGSGVPGSGVPGSGVPGSGVPGSGVPGSGVPGSGVPGSGVPGSGVPGSGVPGSGVPGSGVPGSGVPGSGVPGSGVPGSGVPGSGVPGSGVPGSGVPGSGVPGSGY
For B1, the ADH aggregation (optical density at 360 nm, 48° C., 2 h) (% decrease in ADH aggregation) was found to be 61.
